{
  "source": "patent US9707281B2",
  "about": "“Pharmaceutical compositions and methods for digesting atherosclerotic plaques” (Northwestern University, priority 2010, dated 2017)",
  "test_system": "Human arterial plaque samples",
  "experiment": "in vitro dissolution and digestion of atherosclerotic plaque specimens (percent reduction of plaque weight)",
  "settings": "EDTA 0.5-2 mg/ml, β-cyclodextrin 1-100 mMol, tPA 0.5-2 mg/ml, p<0.05",
  "experimental": "Atherosclerotic plaques from surgical endarterectomies were obtained from various anatomic sites. All experiments were performed by cutting a given plaque into equal parts by weight then exposing them to various agents alone and in combination to determine the most optimal digestion solution. The optimal concentration and conditions for plaque dissolution and digestion were determined for ethylenediaminetetraacetic acid (EDTA), β-cyclodextrin, tPA, collagenase type I, III, IV, and V. Weights of each specimen were obtained prior to exposure of each solution and at different time points to determine percent of digested versus undigested plaque. Additional variables that were assessed and optimized include: 1) different combinations of EDTA, β-cyclodextrin, and the collagenases, 2) temperature, 3) pH, and 4) agitation.\nAtherosclerotic plaques were obtained from patients undergoing endarterectomies. The optimal concentration and conditions for plaque dissolution and digestion were determined for ethylenediaminetetraacetic acid (EDTA), β-cyclodextrin, and collagenase type I, III, IV, and V. Variables that were assessed included: 1) combination of different agents, 2) time, 3) temperature, 4) pH, and 5) agitation. Weight of each specimen was measured at different time points to determine percent of undigested plaque. […]",
  "data": [
    {"molecule": "tPA: tissue plasminogen activator (protein, UniProt P00750 36-562, looked up) Tissue-type plasminogen …: SYQVICRDEKTQMIYQQHQSWLRPVLRSNRVEYCWCNSGRAQCHSVPVKSCSEPRCFNGGTCQQALYFSDFVCQCPEGFAGKCCEIDTRATCYEDQGISYRGTWSTAESGAECTNWNSSALAQKPYSGRRPDAIRLGLGNHNYCRNPDRDSKPWCYVFKAGKYSSEFCSTPACSEGNSDCYFGNGSAYRGTHSLTESGASCLPWNSMILIGKVYTAQNPSAQALGLGKHNYCRNPDGDAKPWCHVLKNRRLTWEYCDVPSCSTCGLRQYSQPQFRIKGGLFADIASHPWQAAIFAKHRRSPGERFLCGGILISSCWILSAAHCFQERFPPHHLTVILGRTYRVVPGEEEQKFEVEKYIVHKEFDDDTYDNDIALLQLKSDSSRCAQESSVVRTVCLPPADLQLPDWTECELSGYGKHEALSPFYSERLKEAHVRLYPSSRCTSQHLLNRTVTDNMLCAGDTRSGGPQANLHDACQGDSGGPLVCLNDGRMTLVGIISWGLGCGQKDVPGVYTKVTNYLDWIRDNMRP", "values": [
      {"measurement": "reduction in plaque weight, agent alone", "value": 20, "unit": "%"}
    ]}
  ]
}
